Assay [1] concerns the target protein A/G (recombinant fusion protein with protein A and protein G binding sites).
Assay [2] has the same target. This is another data set of the same source.

Regarding Human IgG protein (antibody), the peak wavelength shift after 80 minutes of injection in assay [1] was 6 nm. For the same substance, the exponential constant of the fit to the association phase (peak wavelength shift) in assay [2] turned out to be 0.000533.

For the origin of these results see PMC4209447.
